Results: publication PMC4372654
Like-named read-outs stand apart in the source and are kept apart here.

T1: Orf16 (KfrA homolog), His-tagged (Paenibacillus popilliae ATCC 14706T …, UniProt A0A0D6CB60 1-326)
T1 sequence: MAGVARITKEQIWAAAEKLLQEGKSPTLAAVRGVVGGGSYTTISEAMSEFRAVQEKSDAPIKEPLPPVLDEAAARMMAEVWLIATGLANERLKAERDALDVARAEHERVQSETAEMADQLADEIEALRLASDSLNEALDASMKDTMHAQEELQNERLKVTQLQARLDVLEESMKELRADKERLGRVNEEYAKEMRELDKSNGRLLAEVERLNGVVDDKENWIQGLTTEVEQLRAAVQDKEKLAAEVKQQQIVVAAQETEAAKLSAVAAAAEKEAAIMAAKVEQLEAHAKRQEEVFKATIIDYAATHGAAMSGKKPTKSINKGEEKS

T2: Orf8 (KfrA homolog), His-tagged (Paenibacillus popilliae ATCC 14706T …, UniProt A0A0D6CAG5 1-327)
T2 sequence: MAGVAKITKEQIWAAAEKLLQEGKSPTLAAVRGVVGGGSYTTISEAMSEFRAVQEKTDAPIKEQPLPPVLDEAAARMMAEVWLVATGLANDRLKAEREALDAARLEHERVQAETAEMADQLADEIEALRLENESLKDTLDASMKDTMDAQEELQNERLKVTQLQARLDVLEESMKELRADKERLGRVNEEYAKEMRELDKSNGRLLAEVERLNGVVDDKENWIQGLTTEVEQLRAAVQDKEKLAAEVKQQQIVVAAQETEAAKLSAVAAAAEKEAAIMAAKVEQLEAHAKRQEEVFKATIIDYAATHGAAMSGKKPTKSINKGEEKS


Experiments:
Assay in all cases: competition
[1] = target: T1, Orf16 (KfrA homolog), His-tagged
[2] = target: T2, Orf8 (KfrA homolog), His-tagged
[3] = target: T1, Orf16 (KfrA homolog), His-tagged; remark: listed apart in the source

Row | Binder | binding result [1] | binding result [2] | binding result [3]
1 | IR4 (dsDNA) DNA 1: CATACTACATACAATATACAACATACTACAATATGGAGGGTG DNA 2: GTACCACCCTCCATATTGTAGTATGTTGTATATTGTATGTAGTATGAGCT | binds | binds | –
2 | IR1 (dsDNA) DNA 1: CATGAAAAAATCATG DNA 2: GTACCATGATTTTTTCATGAGCT | – | – | no binding
3 | IR3 (dsDNA) DNA 1: CATACTACATATTACATATTACATACTACATACTACAATATGGAGGGTG DNA 2: GTACCACCCTCCATATTGTAGTATGTAGTATGTAATATGTAATATGTAGTATGAGCT | binds | binds | –
